Experimental data as given in article PMC7550680.

Target: NaV1.5 voltage-gated sodium channel α subunit (human SCN5A) (human) (UniProt Q14524)

Substance: Sodium channel β1 subunit carrying p.D103V (β1^D103V) (from UniProt Q07699-1 19-218) (natural protein)
- positive shift of the voltage dependence of activation (V1/2) of the NaV1.5 sodium current with β1^D103V compared to β1^WT, whole cell patch clamp in transfected HEK-293 tsA201 cells: 3.37 mV
